B1: E5: esterase EstP from Klebsiella sp., amino acid SEQ. ID No. 5 (protein)
chain: MEICTKGSRKHLTSRASEPSYNVPENQYVLYVVSSTLSIVICQLVKVAESKKSRFSGAIEKLNERLDSLKDYRIINRDLVVKDLERLKKRFDTEVINAELSEQLAKINVNLSRSYSEKGYLRLEKATGSENEWWAKKPSQNDDWQQFEPDGYTIFSSRDHYASLEKSYSDYEIEAKIPLPLRRGICAVVLYPEYISRICVLPESRSIQREQENFTKLRDKGIALSKKDWQAKLTIDELAEQEKERATINKRLGYFATEHEKVGIVHKALEPKLICPFQQIEKEWRQCKVKSKSTFPNSMTFVQNPAYQAVHSGFKKLKEQIGLADEDILLSLEKIEAIGLVNMPLLYERWCLLQIIKVLTQAFRYQPEDNWKRKLIANIQGNEEQISIQFFNPSVSRAITLQYEPFLANGKRPDFVLDVEAITKSGNQISKRLVVDAKYYSAAYLKQRGGIGGVIHELYNGKDYSECQENSVFVLHPVLDAVEKVVSPQEWAKDSYLGELSMFDWEPAHHQRQATNYGAVCANPMKSQRYLDEIQRMLGMFLQYGIEDNTSFRGASDDTHAVNFCVSCGSEKVVDVTKSMSSNNQKRWYRCNECTHFTVYTHCGTCNTRLIKNGEYWTYLSLMPMSSINIKCPNCESPV
modifications: Klebsiella
B2: E1: pyrethroid-hydrolyzing carboxylesterase pytZ from Ochrobactrum sp., amino acid SEQ. ID No. 1 (protein)
chain: MTTQTYEHRLKAGAKGAPLFIVFHGTGGDENQFFGLAEQLLPDATIMSPRGDVSEYGAARFFRRTGEGVYDMEDLARATDKMAGFIAALAAEYKTSEVIGLGYSNGANIMANLLIEKGRVEDKAALLHPLVPFRPKDNPALEGAKILMTAGRMDPICPPDLTEALAQYFERQKADVELVWHPGGHELRQTELAAVQSLLAY
modifications: Ochrobactrum sp
B3: E4: pyrethroid-hydrolyzing carboxylesterase MsE1 from Methylobacterium sp., amino acid SEQ. ID No. 4 (protein)
chain: MTQDTTGFIFIREEPGPDTTRPLMLLHGTGGDENDLLPLGRMVAPEAALLAPRGGVSENGMPRFFRRLAEGVFDEADLRRRTGDLAAFVAASRARYGLGAPLALGFSNGANIAASLLMLRPETLTGAVLIRPMVPFAEPPAADLAGRPVLILSGAMDPIVPVENARRLAQQLSASGARVEHRILPAGHGLSQADVSQALAWLRSLPGPEAA
modifications: Methylobacterium
B4: E2: pyrethroid-hydrolyzing carboxylesterase pnbA from B. subtilis, amino acid SEQ. ID No. 2 (protein, listed as Bacillus subtilis)
chain: MTHQIVTTQYGKVKGTTENGVHKWKGIPYAKPPVGQWRFKAPEPPEVWEDVLDATAYGSICPQPSDLLSLSYTELPRQSEDCLYVNVFAPDTPSKNLPVMVWIHGGAFYLGAGSEPLYDGSKLAAQGEVIVVTLNYRLGPFGFLHLSSFNEAYSDNLGLLDQAAALKWVRENISAFGGDPDNVTVFGESAGGMSIAALLAMPAAKGLFQICAIMESGASRTMTICEQAASTSAAFLQVLGINEGQLDKLHTVSAEDLLKAADQLRIAEKENFQLFFQPALDPKTLPEEPEKAIAEGAASGIPLLIGTTRDEGYLFFTPDSDVHSQETLDAALEYLLGKPLAEKVADLYPRSLESQIHMMTDLLEWRPAVAYASAQSHYAPVWMYREDWHPKKPPYNKAFHALELPFVFGNLDGLERMAKAEITDEVKQLSHTIQSAWITFAKTGNPSTEAVNWPAYHEETRETLILDSEITIENDPESEICRQKLEPSKGE

Legend:
[1] = pNPA method esterase (carboxylesterase) activity assay of spore productions; assay type: biochemical; details: 30° C. for 30 minutes, absorbance at 400
Experimental: Each of the identified enzymes were evaluated for esterase activity assay using pNBA method described below. Determination of carboxylesterase activity of cargo enzyme in Bacillus thuringiensis spore productions or of free enzyme productions. Three active carboxylesterases cloned into pBCm (Bt EO) and pET28a (E. coli BL21) systems: pnbA (B. subtilis), PytH2 (Sphingobium wenxiniae strain), and MsE1 (Methylobacterium sp). p-Nitrophenyl acetate was the substrate in assays for esterase activity. The hydrolysis of p-nitrophenyl acetate releases p-nitrophenol and acetate, and while p-nitrophenyl acetate is colorless, p-nitrophenol is yellow.
6 mg p-Nitrophenyl acetate (pNPA, CAS #830-03-5, MW: 181.1 g/mol) was weighed and dissolved in 1 mL methanol (CAS #67-56-1, MW: 32.04 g/mol). Stored at −20° C. and kept on ice when preparing reactions.
8.0 g sodium chloride (NaCl, CAS #7647-14-5, MW: 58.44 g/mol), 1.44 g sodium phosphate dibasic was dissolved (Na2HPO4, CAS #7558-79-4, MW: 141.96 g/mol), and 0.24 g potassium phosphate monobasic (KH2PO4, CAS #7778-77-0, 136.09 g/mol) in 800 mL DI H20, then adjust pH to 7.4 using hydrochloric acid (HCl, CAS #7647-01-0, MW: 36.46 g/mol). Make 100 mL aliquots and autoclave.
Esterase from rabbit liver (CAS #9016-18-6, Sigma E0887-powder). Store at −20° C. To prepare a stock dissolve 1 mg in 1 mL PBS, kept on ice when using.
Up to 1 mL spore production was pelleted up for 5 min at max speed. Supernatant was discarded without disturbing spore pellet and suspend pellet in ice-cold PBS. Spores kept suspended on ice until use.
The assay was run at 30° C. for 30 minutes. The assay was shaken continuously. Activity was read on (A) 400 BioTek Synergy/HTX microplate reader was used. The results of pNPA hydrolysis are shown in Table 3 depicting carboxylesterase enzyme activity for each of the five strains using pNPA hydrolysis.

[2] = Biological permethrin assay for esterase activity (activity units of esterases); assay type: biochemical; details: esterases used in reaction mix for scud assay
Experimental: A biological permethrin assay was performed for control, and three esterases pnbA, pytH2 and MsE1. The sensitivity of scuds (Hyalella Azteca) to permethrin was tested with three esterases pnbA, pytH2 and MsE1.
For control and each of the three esterases pnbA, pytH2 and MsE1, ten scuds were exposed to permethrin and one of pnbA, pytH2 or MsE1.
• 100 μL 50% MeOH in PBS • 0.2 μg/μL
• 37 degree C. • 18 hr • Shanking 1000 rpm Transferred 20 μL rxn mix [4 μg] to 100 mL [containing 10 scuds] At time, 24 h and 48 h the ten scuds were scored: A=Alive and Moving actively BA=Barely Alive—Difficulty swimming away; only legs are moving D=Dead—Not moving at all The results of which are shown in FIGS. 8 and 9.

| Molecule | pNPA hydrolysis [1] | Activity units [2] |
| --- | --- | --- |
| B1 | BDL | – |
| B2 | BDL | – |
| B3 | 30.6 ± 0.0 nmol pNPA/min/1E+8 spores | 39.5 |
| B4 | 19.7 ± 1.4 nmol pNPA/min/1E+8 spores | 31.4 |

Reference: patent US20220047684A1, “ENZYMES AND METHODS FOR PREVENTING AND TREATING […] IN ANIMALS” (Ecto Development Corporation, priority 2020, published 2022)
